Data: patent US20250017968A1 (CHINA MEDICAL UNIVERSITY, published 2025)

What was measured:
[1] = molecular target: T1, EphA10 antigen (R&D systems) (Homo sapiens (Human), UniProt Q5JZY3 34-565); assay: Biacore 8K SPR, global fit to 1:1 binding model, triplicates
T1 construct: Coated antigen in the indirect ELISA; The Biacore assay says only 'EphA 10' without source or form; also called ephrin type-A receptor 10
T1 sequence: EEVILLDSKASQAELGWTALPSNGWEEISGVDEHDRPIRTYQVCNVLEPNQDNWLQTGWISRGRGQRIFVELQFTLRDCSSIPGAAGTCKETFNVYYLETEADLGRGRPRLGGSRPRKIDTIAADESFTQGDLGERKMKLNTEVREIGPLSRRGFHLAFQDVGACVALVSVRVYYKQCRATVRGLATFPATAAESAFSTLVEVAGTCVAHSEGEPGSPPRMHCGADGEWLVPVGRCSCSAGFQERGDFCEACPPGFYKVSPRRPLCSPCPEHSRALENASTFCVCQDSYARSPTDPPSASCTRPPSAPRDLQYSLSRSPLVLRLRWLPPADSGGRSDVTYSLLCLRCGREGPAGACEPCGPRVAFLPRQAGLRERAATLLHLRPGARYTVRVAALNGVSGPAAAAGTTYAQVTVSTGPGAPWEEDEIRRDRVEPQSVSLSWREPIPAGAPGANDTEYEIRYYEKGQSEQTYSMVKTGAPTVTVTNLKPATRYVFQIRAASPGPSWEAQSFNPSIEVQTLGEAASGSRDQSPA
Source text: CMU #13 was also subjected to a Biacore assay.

[2] = molecular target: T1, EphA10 antigen (R&D systems); assay: indirect ELISA on coated EphA antigen, ScFv-mouse IgG2a antibody titrated
Method: ScFv sequences were fused with mouse IgG2a sequence and sub-cloned into pcDNA3.1 plasmid. Three ScFv-mouse IgG2a plasmids were transfected into HEK293 cells. Three ScFv-mouse IgG2a antibodies were purified by protein A resin. Three antibodies were tested for indirect ELISA against coated 9 EPHA antigens (EphA1-8 and 10, R&D systems).

[3] = molecular target: T2, full-length human EphA10 expressed on NIH 3T3 cells (human, UniProt Q5JZY3 34-1008); assay: FACS on NIH 3T3 cells expressing full-length human EphA10
T2 construct: whole, on cells
T2 sequence (looked up): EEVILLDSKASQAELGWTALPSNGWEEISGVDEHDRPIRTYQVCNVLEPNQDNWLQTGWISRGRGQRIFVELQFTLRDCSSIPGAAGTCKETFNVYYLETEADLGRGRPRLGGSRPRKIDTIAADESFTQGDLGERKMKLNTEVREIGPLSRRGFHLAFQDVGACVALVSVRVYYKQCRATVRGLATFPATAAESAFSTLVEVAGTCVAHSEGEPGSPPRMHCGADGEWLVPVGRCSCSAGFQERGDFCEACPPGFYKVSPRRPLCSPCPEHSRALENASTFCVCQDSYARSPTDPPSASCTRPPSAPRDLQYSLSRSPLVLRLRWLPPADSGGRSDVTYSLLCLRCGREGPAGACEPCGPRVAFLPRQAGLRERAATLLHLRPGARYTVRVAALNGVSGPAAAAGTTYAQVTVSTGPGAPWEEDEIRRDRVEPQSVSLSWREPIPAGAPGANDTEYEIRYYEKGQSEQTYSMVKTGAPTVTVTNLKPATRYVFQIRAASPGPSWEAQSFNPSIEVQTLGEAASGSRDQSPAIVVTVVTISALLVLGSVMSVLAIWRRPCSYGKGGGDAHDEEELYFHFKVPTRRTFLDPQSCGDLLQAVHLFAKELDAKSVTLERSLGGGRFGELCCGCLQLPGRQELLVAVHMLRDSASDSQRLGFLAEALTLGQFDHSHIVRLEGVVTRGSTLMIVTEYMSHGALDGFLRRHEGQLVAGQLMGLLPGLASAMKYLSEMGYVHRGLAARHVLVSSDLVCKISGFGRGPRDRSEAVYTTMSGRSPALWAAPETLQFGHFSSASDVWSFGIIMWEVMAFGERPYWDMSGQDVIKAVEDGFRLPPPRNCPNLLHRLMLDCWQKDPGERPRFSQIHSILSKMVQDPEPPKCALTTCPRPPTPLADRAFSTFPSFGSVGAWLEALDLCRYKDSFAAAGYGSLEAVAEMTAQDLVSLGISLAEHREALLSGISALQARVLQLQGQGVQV

B1: CMU #13 ScFv-mouse IgG2a antibody (Fc fusion)
chain: QVQLVQSGAEVKKPGSSVKVSCKASGGTFSSYAISWVRQAPGQGLEWMGGIIPIFGTANYAQKFQGRVTITADESTSTAYMELSSLRSEDTAVYYCAREGDSYGYYYGMDVWGQGTTVTVSSGGGGSGGGGSGGGGSQPVLTQPPSASGTPGQRVTISCSGSSSNIGSNYVYWYQQLPGTAPKLLIYENYLRPSGVPDRFSGSKTGTSASLAISGLQSEDEADYYCAAWDDSLNGYVFGTGTQLTVLSEPRGPTIKPCPPCKCPAPNLLGGPSVFIFPPKIKDVLMISLSPIVTCVVVDVSEDDPDVQISWFVNNVEVHTAQTQTHREDYNSTLRVVSALPIQHQDWMSGKEFKCKVNNKDLPAPIERTISKPKGSVRAPQVYVLPPPEEEMTKKQVTLTCMVTDFMPEDIYVEWTNNGKTELNYKNTEPVLDSDGSYFMYSKLRVEKKNWVERNSYSCSVVHEGLHNHHTTKSFSRTPGK
notes: The Biacore assay names only 'CMU #13'; also called anti-EphA10 antibody CMU #13
- Kd [1]: 1.79 nM
- koff [1]: 0.00288 s⁻¹
- kon [1]: 1.61e+06 M⁻¹ s⁻¹
- EC50 (read off the curve) [2]: ~0.4 nM

B2: CMU #13 scFv (clone from human B cell-derived scFv phage display library) (scFv)
scFv: QVQLVQSGAEVKKPGSSVKVSCKASGGTFSSYAISWVRQAPGQGLEWMGGIIPIFGTANYAQKFQGRVTITADESTSTAYMELSSLRSEDTAVYYCAREGDSYGYYYGMDVWGQGTTVTVSSGGGGSGGGGSGGGGSQPVLTQPPSASGTPGQRVTISCSGSSSNIGSNYVYWYQQLPGTAPKLLIYENYLRPSGVPDRFSGSKTGTSASLAISGLQSEDEADYYCAAWDDSLNGYVFGTGTQLTVLS
- binding result [3]: binds
